# In patent US20030186329A1, “Use of substrate subtraction libraries to distinguish enzyme specificities” (The Scripps Research Institute, priority 1998, published 2003):
# Columns and labels:
# Type in all cases: biochemical
# [1] = target: T1, t-PA (Homo sapiens, UniProt P00750); test: Dot blot assay of digestion of individual substrate phage stocks by t-PA; conditions: for selectivity of substrate phage for t-PA or u-PA: digestion by t-PA and u-PA; for digestion of phage stock by t-PA: loss of antibody epitopes
# T1 sequence (P00750 36-562): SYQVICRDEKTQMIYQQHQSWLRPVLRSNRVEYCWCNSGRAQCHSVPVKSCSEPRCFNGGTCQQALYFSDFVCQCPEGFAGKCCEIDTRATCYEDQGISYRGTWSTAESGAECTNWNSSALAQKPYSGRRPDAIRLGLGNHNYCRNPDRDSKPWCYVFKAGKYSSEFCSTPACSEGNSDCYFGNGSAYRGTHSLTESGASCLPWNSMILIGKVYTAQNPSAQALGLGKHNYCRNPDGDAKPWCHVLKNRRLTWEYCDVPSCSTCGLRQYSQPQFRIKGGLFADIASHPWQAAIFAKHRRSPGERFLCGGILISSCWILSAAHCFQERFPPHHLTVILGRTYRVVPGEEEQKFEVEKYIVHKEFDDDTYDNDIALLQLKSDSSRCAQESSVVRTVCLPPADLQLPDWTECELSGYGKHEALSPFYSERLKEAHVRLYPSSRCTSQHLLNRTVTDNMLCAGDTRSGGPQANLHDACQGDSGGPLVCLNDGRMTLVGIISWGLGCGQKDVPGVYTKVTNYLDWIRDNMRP
# Experimental: (§1) To verify that the substrate subtraction library had yielded substrates that were preferentially cleaved by t-PA, digestion of individual phage stocks by t-PA and u-PA was analyzed by a dot blot assay that was performed as previously described (Ding, L., et al., 1995; Smith, M. M., et al., 1995) (FIG. 3). Loss of positive staining indicates loss of antibody epitopes from the phage due to proteolytic cleavage of the random hexamer region.
# (§2) In general, with the exception of the screening protocol, procedures followed were those used in Example 1. Digestion of the phage was performed using enzyme concentrations varying from 2-10 μg/ml and incubation times varying from 0.5-10 hours. Phage precipitation and dot blot analysis were performed as described in Example 1. Individual phage stocks were prepared and digested with no enzyme, t-PA, u-PA, or u-PA in the presence of 1 mM amiloride, a specific inhibitor of u-PA′ for periods of time varying from 15 minutes to 10 hours. Individual reaction mixtures were spotted onto a nitrocellulose filter using a dot blotter apparatus (BioRad). The filter was probed with MAb 3E-7 and developed using the Amersham Western ECL kit. Loss of positive staining indicates loss of antibody epitopes from the phage due to proteolytic cleavage of the randomized hexamer region.
# [2] = target: T1, t-PA; test: Kinetics of cleavage of synthetic peptides by t-PA (HPLC, Eadie-Hofstee analysis); conditions: for Km / kcat, t-PA: hydrolysis of peptide by t-PA; for t-PA:u-PA Selectivity: ratio of kcat/Km for peptide hydrolysis, t-PA over u-PA
# Experimental: (§3) Concentrations of functional t-PA and u-PA were measured by active site titration with 4-methylumbelliferyl p-guanidinobenzoate (Jameson, G., et al., (1973) Biochem. J. 131, 107-117) using a Perkin-Elmer LS 50B Luminescence Fluorometer as previously described (Madison, E. L., et al., (1995) J. Biol. Chem. 270: 7558-7562). In addition, the enzymes were titrated with a standard PAI-1 preparation that had been previously titrated against a trypsin primary standard. Total enzyme concentrations were measured by ELISA.
# (§4) Individual phage stocks were prepared and digested with no enzyme, t-PA, u-PA, or u-PA in the presence of 1 mM amiloride, a specific inhibitor of u-PA. Kinetic-data were obtained by incubating various concentrations of peptide with a constant enzyme concentration to achieve between 5 and 20% cleavage of the peptide in each reaction. For assays with u-PA, enzyme concentration was either 815 or 635 nM. For assays with t-PA enzyme concentration was 700 nM. […] The buffer used in these assays has been described (Madison, E. L., et al., 1995). Reactions were stopped by addition of triflouroacetic acid to 0.33% or by freezing on dry ice. Cleavage of the 13 and 14 residue peptides was monitored by reverse phase HPLC as described (Madison, E. L., et al., 1995). The 4-6 residue peptides were acylated at their amino termini and amidated at their carboxyl termini. Cleavage of the 4-6 residue peptides was monitored by hydrophilic interaction HPLC chromatography (HILIC) (Alpert, A. J. (1990) J. Chromatog. 499, 177-196.) using a polyhydroxyaspartamine column from PolyLC (Columbia, Md.). Buffer A was 50 mM triethylamine phosphate in 10% acetonitrile and buffer B was 10 mM triethylamine phosphate in 80% acetonitrile. Peptides were eluted by a gradient which was varied from 100% Buffer B to 100% Buffer A during a 13 minute interval. The percent of cleaved peptide was calculated by dividing the area under the product peaks by the total area under substrate and product peaks. For all peptides containing multiple basic residues, mass spectral analysis of products confirmed that cleavage occurred at a single site and identified the scissile bond. Data were interpreted by Eadie-Hofstee analysis. Errors were determined as described (Taylor, J. R., 1982) An introduction to error analysis. The study of uncertainties in physical measurements. University Science Books, Mill Valley, Calif.) and were <25%.
# (§5) Kinetic data were obtained by incubating various concentrations of peptide with a constant enzyme concentration to achieve between 5 and 20% cleavage of the peptide in each reaction as described in Example 1.
# [3] = target: T2, u-PA (Homo sapiens, UniProt P00749); test: Kinetics of cleavage of synthetic peptides by u-PA (HPLC, Eadie-Hofstee analysis); conditions: hydrolysis of peptide by u-PA
# T2 construct: purchased Jack Henkin (Abbott Laboratories)
# Experimental: as §3, §4, §5
# [4] = target: T2, u-PA; test: Dot blot assay of digestion of individual substrate phage stocks by u-PA; conditions: loss of antibody epitopes
# Experimental: as §1
# as §2, with “The filter was probed with MAb 3E-7 and developed using the Amersham Western ECL kit. Loss of positive staining indicates loss of antibody epitopes from the phage due to proteolytic cleavage of the randomized hexamer region.” left out
# Two changes were made in the experimental protocol to examine the P3 and P2 preferences of u-PA. […] Although this semi-quantitative assay cannot provide kinetic constants, it can provide an accurate rank ordering of the lability of the substrate phage clones.
# [5] = test system: u-PA; test: Kinetics of cleavage of synthetic peptides by u-PA (HPLC, Eadie-Hofstee analysis); conditions: ratio of kcat/Km for peptide hydrolysis, u-PA over t-PA
# Experimental: as §3, §4, §5
Substance,Km [2],"kcat, t-PA [2]",Km [3],"kcat, u-PA [3]",other results
RSANAI [Phage 33],,,,,selectivity of substrate phage for t-PA or u-PA [1]: u-PA selective substrate
SGR↓SA (SGRSA; listed as Homo sapiens) [XVI],40 mM,2.4 s⁻¹,3.1 mM,3.7 s⁻¹,
FRGR↓K (FRGRK; listed as Homo sapiens) [VII],,,,,t-PA:u-PA Selectivity [2]: approximately 74
"PGRVVG [Control phage PL, reference compound]",,,,,digestion of phage stock by t-PA [1]: not digested by either enzyme; digestion of phage stock by u-PA [4]: not digested by either enzyme
LGGSGR↓SATRDLE (LGGSGRSATRDLE; listed as Homo sapiens) [XIII],1.5 mM,0.068 s⁻¹,0.733 mM,0.54 s⁻¹,
GSGK↓S (GSGKS; listed as Homo sapiens) [XVIII],44 mM,0.07 s⁻¹,4.25 mM,0.82 s⁻¹,u-PA:t-PA Selectivity [5]: approximately 120
SGR↓S (SGRS; listed as Homo sapiens) [XV],15 mM,5.0 s⁻¹,2.1 mM,2.3 s⁻¹,t-PA:u-PA Selectivity [2]: 0.30
LGGSGR↓KASLSLE (LGGSGRKASLSLE; listed as Homo sapiens) [XIV],5.1 mM,0.168 s⁻¹,1.13 mM,1.14 s⁻¹,
FRGRAA [Phage 7],,,,,selectivity of substrate phage for t-PA or u-PA [1]: t-PA selective substrate
SGK↓S (SGKS; listed as Homo sapiens) [XVII],28 mM,0.19 s⁻¹,7.9 mM,1.22 s⁻¹,t-PA:u-PA Selectivity [2]: 0.04
RIARRA [Substrate phage 51],,,,,digestion of phage stock by t-PA [1]: substrate of both t-PA and u-PA; digestion of phage stock by u-PA [4]: substrate of both t-PA and u-PA
